System: MS2 coat protein
Assay: apparent KD of MS2 coat protein; designed switch direction (-1 OFF switch, 1 ON switch): -1; higher = weaker reporter binding
Procedure, shortened: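 Designed RNA switches with common flanks were made on Illumina chips by stalled E. coli RNA polymerase. Titration with SNAP-549-labelled MS2 coat protein doubled from 0.7 or 1.5 nM up to 3 µM. Apparent KD is each design's median over clusters after curve-fitting normalised fluorescence.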

[1] = input ligand: microRNA oligo, concentration not stated
[2] = Eterna round: R95, input ligand: microRNA oligo, concentration not stated
[3] = Eterna round: R95, input ligand: FMN 200 uM
[4] = Eterna round: R95, input ligand: none

Sequence	apparent KD of MS2 coat protein (input ligand: FMN 200 uM)	apparent KD of MS2 coat protein (input ligand: none)	apparent KD of MS2 coat protein [1]	apparent KD of MS2 coat protein [2]	apparent KD of MS2 coat protein [3]	apparent KD of MS2 coat protein [4]
UGCCGUUGAGGAUAUACAUAGAAAUAGAUUCAUGUAAAACUACAUGAGGAUCACCCAUGUAGAAGGCAAUGGCU [Mat - Exclusion 2 - JL Mod - D51] (Eterna round: R97, puzzle: Exclusion 2)	128 nM	23.9 nM	–	–	–	–
UGCCUAGCAGGAUAUGCUCGGGAUUACAUGAGGAUCACCCAUGUGACUGAUUGUUGUCUUGCAGAAGGGCUAGGGA [JL-EX5-4.05 ViennaUCT mod] (Eterna round: R97, puzzle: Exclusion 5)	443 nM	99.7 nM	–	–	–	–
UGCCUUUGAGGAUAUACGUAGAAAUAGAUUCAUGUAAAACUACAUGAGGAUCACCCAUGUAGAAGGCAAGGGCU [Mat - Exclusion 2 - JL Mod - D48] (Eterna round: R97, puzzle: Exclusion 2)	164 nM	24 nM	–	–	–	–
UGCGGUAGAGGAUAUACGUAGAAUUAGGUUCAUGUAAAACUACAUGAGGAUCACCCAUGUAGAAGGCUAUCGCU [JL-ex2-4.30 Eli mod] (Eterna round: R97, puzzle: Exclusion 2)	85.4 nM	21.2 nM	–	–	–	–
UGCUACAUGAGGAUCACCCAUGUUAUUUGGGAUUUUUUAGGACAGGAUAUGAUUGUAUUGUUUUUUCAGAAGGGUCAUUACUUU [JR_ExcNG3_Sub013] (Eterna round: R96, puzzle: Exclusion NG 3)	368 nM	347 nM	316 nM	–	–	–
UGCUAGUCAGGAUAUACGAACAUGUCAAAAGACGUGAAGGGACAUGAGGAUCACCCAUGUAGAAGGGACUAGCC [salish99_ex2_r3_008] (puzzle: Exclusion 2)	–	–	–	25.5 nM	–	–
UGGUGGAAGCAGGAUAUGCUAGAAGUGUAGAAUGCAGAAGGGCUAACAUGAGGAUCACCCAUGUAAGAGGUGUU [JR_E6_Sub052] (puzzle: Exclusion 6)	–	–	–	296 nM	–	–
UGGUGGUAGCAGGAUAUGCUUGUUGUGUAGUUUGCAGAAGGGCUAACAUGAGGAUCACCCAUGUAAGAGGUGUU [JR_E6_Sub054] (puzzle: Exclusion 6)	–	–	–	339 nM	–	–
UGUAAGCUAGGAUAUGCUUUGGGAAAGCAUUCCUUCGAUAAACUUGAGGAUCACCCAAGUAGAAGGAGCUUACU [salish99_ex2_r4_006] (Eterna round: R97, puzzle: Exclusion 2)	17.5 nM	11.5 nM	–	–	–	–
UGUGUGAGACAGGAUAUGCCGGAUGAAAUGCAGGUAGAAGGGUCUACAUGAGGAUCACCCAUGUGGCCGGUUGG [Ex6 #75] (Eterna round: R97, puzzle: Exclusion 6)	18.9 nM	15.1 nM	–	–	–	–
UGUGUGAGACAGGAUAUGCUGGAUGAGAGGCAGGUAGAAGGGUCUACAUGAGGAUCACCCAUGUGGCCGGUUGG [Ex6 #72] (Eterna round: R97, puzzle: Exclusion 6)	26.9 nM	26.3 nM	–	–	–	–
UGUUGGUACGUAGGAUAUCCACCAACAGGUGGAAGGAUAUGGAAACAGAAGGUUCGCCAACAGGCGGAGAAGGACGUGGUAACU [pwkr exNG2 2xF7 2xFMN.24] (Eterna round: R96, puzzle: Exclusion NG 2)	126 nM	255 nM	212 nM	–	–	–
UGUUGUCGCGCAGGAUAUGAGGAUCACCCAUAUAAGGAUAUCGAAAGAGAAGGUCUGAGGAUUACCCAGAAGGGCGGGACAACU [pwkr exNG2 2xF5 2xFMN.30] (Eterna round: R96, puzzle: Exclusion NG 2)	309 nM	70.1 nM	43.8 nM	–	–	–
UGUUGUCGCGCAGGAUAUGAGGAUCACCCAUAUGGAGGAUAUGAAAAGAAGGUUCUGAGGAUCACCCAGAAGGGCGGGACAACU [pwkr exNG2 2xF5 2xFMN.20] (Eterna round: R96, puzzle: Exclusion NG 2)	261 nM	60.6 nM	43 nM	–	–	–
UGUUGUCGCGUAGGAUAUGCAUGAGGAUCACCCAUGCAAUUAGAGUUAACAUGAGGAUCACCCAUGUAGAAGGACGGGACAACU [pwkr exNG2 2xF5 1xFMN.6] (Eterna round: R96, puzzle: Exclusion NG 2)	89.2 nM	54.1 nM	34.6 nM	–	–	–
UGUUGUCGCGUAGGAUAUGCAUGAGGAUCACCCAUGCAAUUAGAGUUAACAUGAGGAUCACCCAUGUAGAAGGGCGGGACAACU [pwkr exNG2 2xF5 1xFMN.7] (Eterna round: R96, puzzle: Exclusion NG 2)	62.8 nM	51.2 nM	42.2 nM	–	–	–
UGUUGUUACGCAGGAUAUGAGGAUCACCCAUAUCAGGAUAUCGAAAGAGAAUUUCUGAGGAUCACCCAGAAGGGCGGGUUAACA [pwkr exNG2 2xF5 2xFMN.37] (Eterna round: R96, puzzle: Exclusion NG 2)	125 nM	47.7 nM	40.3 nM	–	–	–

Sequence	apparent KD of MS2 coat protein (input ligand: FMN 200 uM)	apparent KD of MS2 coat protein (input ligand: none)	apparent KD of MS2 coat protein [1]	apparent KD of MS2 coat protein [2]	apparent KD of MS2 coat protein [3]	apparent KD of MS2 coat protein [4]
UGUUGUUCAGGAUAUGAUGUAUAAUACAUGAGGAUCACCCAUGUAGAUCCUGAAUUAACAUCAGAAGGGAAUAUUU [JL-ex5-4.59 Brourd mod] (Eterna round: R97, puzzle: Exclusion 5)	19.8 nM	17.2 nM	–	–	–	–
UGUUGUUCCGAAGGAUAUGUAUGAGGAUCACCCAUAAGAGUUGAUGUACCAUGAGGAUCACCCAUGUAGAAGGUCGGGUUAACU [pwkr exNG2 2xF5 1xFMN.20] (Eterna round: R96, puzzle: Exclusion NG 2)	200 nM	101 nM	52.6 nM	–	–	–
UGUUGUUGCGUAGGAUAUUGCCAACAGGCAGUAGGAUAUGCGAAAGCAGAAGGACCGCCAACAGGCGAGAAGGACGGGACAACU [pwkr exNG2 2xF7 2xFMN.13] (Eterna round: R96, puzzle: Exclusion NG 2)	177 nM	72.6 nM	39.4 nM	–	–	–
UUAAAUCAUGUAGGAUAUGCGUGGCGAAGCUAUGCAGAAGGACAUGAGGAUCACCCAUGUCUUUCCGUCUGCGUACAGAUGGAG [JL Eng1 1.08 mod 4] (Eterna round: R96, puzzle: Exclusion NG 1)	191 nM	24.7 nM	17.4 nM	–	–	–
UUAACCAGAGGAUAUGCGAAUAAAUAAAACUUUUUUUUUUAACAUGAGGAUCACCCAUGUAGAAGGCUGCAUUU [Ex2 #30] (Eterna round: R97, puzzle: Exclusion 2)	25.4 nM	25.1 nM	–	–	–	–
UUAAGCUUUGAGAUCCUUAACAUGAGGAUCACCCAUGUUCGUCUUAUGAUGGUCUGAUCCCUGAGGAUCGGACCGUA [Mat - Sensor v3 - turn-off var 1 - JL Mod - D4] (puzzle: Sensor v3, turn-off variant 1)	–	–	–	11.2 nM	180 nM	219 nM
UUAAUGUGAGGAUAUCAAGAGAGAAAGAGUAAUGGUAAAUAUGAGAAGGCACAUGAGGAUCACCCAUGUUCUUC [Mat - Exclusion 4 - Mod of JL - D60] (puzzle: Exclusion 4)	–	–	–	14.2 nM	–	–
UUAAUGUGAGGAUAUGGUAAAGAUAGAAUGAUGAAAGAACUCCAGAAGGCACAUGAGGAUCACCCAUGUAGAUG [Mat - Exclusion 4 - Mod of JL - D28] (puzzle: Exclusion 4)	–	–	–	30.5 nM	68.3 nM	42 nM
UUAAUUAAUGUCAGGAUAUCUAGAGCCUCGGCUCUAGAGAAGGGACAUGAGGAUCACCCAUGUCACUCUUAAUU [BmEx4/3-C2] (Eterna round: R97, puzzle: Brourd's mod of Exclusion 4)	19.5 nM	18.7 nM	–	–	–	–
UUAAUUAAUUAAGGCUGAAGAUCACAUGAGGAUCACCCAUGUAAGGAUAUCAGCUCGUUUAGAGCUGAGAAGGUACAUGCAGCC [ExNG3/18-B2] (Eterna round: R96, puzzle: Exclusion NG 3)	160 nM	370 nM	568 nM	–	–	–
UUAAUUAAUUUAAUAUAAGAUCACAUGAGGAUCACCCAUGUAUAGGAUAUCAGCUCGUGUAGAGCUGAGAAGGAUACAUAAUAU [ExNG3/2-B3] (Eterna round: R96, puzzle: Exclusion NG 3)	105 nM	155 nM	161 nM	–	–	–
UUAAUUAGCUCGCUAGAUCCUCACAUGAGGAUCACCCAUGUGCAGGAUAUCAGCUCGUGUAGAGCUGAGAAGGGCACUGCGAGC [ExNG3/10-A3] (Eterna round: R96, puzzle: Exclusion NG 3)	51.6 nM	108 nM	88.2 nM	–	–	–
UUAAUUUGAGGAUAUACUAUUAACCACAUGAGGAUCACCCAUGUUCUAUCAUGUAUAUGUGUAGAAGGCAGAAUGC [JR_Ex5_Sub071] (Eterna round: R97, puzzle: Exclusion 5)	58.1 nM	50.7 nM	–	–	–	–
UUACAAUGUCGCUUAAUAGCUUUUUGCUCGUCUUAUAUUACAUGAGGAUCACCCAUGUAGAUCAUGUGGCGUGACCU [JL ViennaUCT Maridi mod 7] (puzzle: Sensor v3, turn-off variant 2)	–	–	–	40.7 nM	206 nM	210 nM
UUACGGCGGAGAGGAUAUCCGAAAGGAAGUGUAGGAGAAGGCUCCAGUUGUACAUGAGGAUCACCCAUGUGAUCCUUUCCGAAA [PowerStrip EXNG 1.25] (Eterna round: R96, puzzle: Exclusion NG 1)	2040 nM	126 nM	79.7 nM	–	–	–
UUAGUAUUGCAAGGAUAUGUUUAUGAUAUUUUUCCUCUUACAUGAGGAUCACCCAUGUUUAACUUACAGAAGGUGCUAUGAUUU [JR_ExcNG2_Sub031] (Eterna round: R96, puzzle: Exclusion NG 2)	–	–	342 nM	–	–	–

Reference: the supplement of paper PMC9170038
